Reference: PMC11087797 (2024)

How the values were obtained:
Test in all cases: SPR; peptide …
LA34(3-11)-HLA-E*01:03 = molecular target: LA34(3-11)-HLA-E*01:03
LCw3(3-11)-HLA-E*01:03 = molecular target: LCw3(3-11)-HLA-E*01:03
LA1(3-11)-HLA-E*01:03 = molecular target: LA1(3-11)-HLA-E*01:03
LB7(3-11)-HLA-E*01:03 = molecular target: LB7(3-11)-HLA-E*01:03
LA80(3-11)-HLA-E*01:03 = molecular target: LA80(3-11)-HLA-E*01:03

| Binder | Kd (LA34(3-11)-HLA-E*01:03) | Kd (LCw3(3-11)-HLA-E*01:03) | Kd (LA1(3-11)-HLA-E*01:03) | Kd (LB7(3-11)-HLA-E*01:03) | Kd (LA80(3-11)-HLA-E*01:03) |
| --- | --- | --- | --- | --- | --- |
| soluble CD94-NKG2C NK cell receptor ectodomains (receptor) chain 1: KNSFTKLSIEPAFTPGPNIELQKDSDCCSCQEKWVGYRCNCYFISSEQKTWNESRHLCASQKSSLLQLQNTDELDFMSSSQQFYWIGLSYSEEHTAWLWENGSALSQYLFPSFETFNTKNCIAYNPNGNALDESCEDKNRYICKQQLI chain 2: not shown | 13.5 µM | 22 µM | 11.3 µM | 25.5 µM | 42.8 µM |
| soluble CD94-NKG2A NK cell receptor ectodomains (receptor) chain 1: KNSFTKLSIEPAFTPGPNIELQKDSDCCSCQEKWVGYRCNCYFISSEQKTWNESRHLCASQKSSLLQLQNTDELDFMSSSQQFYWIGLSYSEEHTAWLWENGSALSQYLFPSFETFNTKNCIAYNPNGNALDESCEDKNRYICKQQLI chain 2: not shown | 1.8 µM | 1.5 µM | 1.5 µM | 3.3 µM | 2.1 µM |
